The series has as its target CsERF061 (Citrus sinensis? (blood orange), UniProt A0ACB8LNY5 1-312). Briefly: EMSA.

B1: RE-mut-probe (dsDNA)
DNA 1: TGTCAAAAAAAAAAGCCACAAGGCAAATTCAAGTTG
DNA 2: CAACTTGAATTTGCCTTGTGGCTTTTTTTTTTGACA
In the case of B1, the binding result is reported as “no binding”.

For the origin of these results see PMC13087489.
